Columns and labels:
[1] = biological target: ATF4 (UniProt P18848 1-351); assay: EMSA; ATF4 alone, up to 90 uM; probe 0.25 nM; EMSA: 10 mM HEPES pH 7.8, 50 mM NaCl, 10 mM MgCl2, 5 mM DTT, protease inhibitor, 0.25 mg/ml BSA, 5 ng/ul poly dIdC, 5% glycerol, ~5 fmol probe in 20 ul; native; settings: protein: recombinant; tags: N-terminal His (pET30a); chain copies: 2; label: 32P
[2] = biological target: C/EBPβ (UniProt P17676 1-345); assay: EMSA; C/EBPβ 100-900 nM; preferred site; probe 0.25 nM; EMSA: 10 mM HEPES pH 7.8, 50 mM NaCl, 10 mM MgCl2, 5 mM DTT, protease inhibitor, 0.25 mg/ml BSA, 5 ng/ul poly dIdC, 5% glycerol, ~5 fmol probe in 20 ul; native; settings: protein: recombinant; tags: N-terminal His (pET30a); chain copies: 2; label: 32P
[3] = biological target: C/EBPβ (heterodimer subunit);ATF4 (heterodimer subunit) (human?;human?, UniProt P17676;P18848 1-345;1-351, |); assay: EMSA; ATF4 added to C/EBPβ; higher affinity than C/EBPβ homodimer; antibodies inhibit heterodimer binding; EMSA: 10 mM HEPES pH 7.8, 50 mM NaCl, 10 mM MgCl2, 5 mM DTT, protease inhibitor, 0.25 mg/ml BSA, 5 ng/ul poly dIdC, 5% glycerol, ~5 fmol probe in 20 ul; native; settings: protein: recombinant;recombinant; tags: N-terminal His (pET30a);N-terminal His (pET30a); copies: 1;1; label: 32P
C/EBPβ (heterodimer subunit);ATF4 (heterodimer subunit), sequence (P17676 whole entry, chain 1 of 2): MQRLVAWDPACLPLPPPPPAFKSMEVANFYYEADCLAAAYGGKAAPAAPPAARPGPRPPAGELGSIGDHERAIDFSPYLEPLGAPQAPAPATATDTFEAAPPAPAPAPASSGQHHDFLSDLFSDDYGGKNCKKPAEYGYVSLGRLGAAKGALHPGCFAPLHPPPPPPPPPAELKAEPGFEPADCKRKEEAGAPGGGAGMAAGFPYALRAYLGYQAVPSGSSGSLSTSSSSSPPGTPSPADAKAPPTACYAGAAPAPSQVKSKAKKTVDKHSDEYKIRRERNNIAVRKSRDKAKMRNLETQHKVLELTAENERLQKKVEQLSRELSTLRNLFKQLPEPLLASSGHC
C/EBPβ (heterodimer subunit);ATF4 (heterodimer subunit), sequence (P18848 whole entry, chain 2 of 2): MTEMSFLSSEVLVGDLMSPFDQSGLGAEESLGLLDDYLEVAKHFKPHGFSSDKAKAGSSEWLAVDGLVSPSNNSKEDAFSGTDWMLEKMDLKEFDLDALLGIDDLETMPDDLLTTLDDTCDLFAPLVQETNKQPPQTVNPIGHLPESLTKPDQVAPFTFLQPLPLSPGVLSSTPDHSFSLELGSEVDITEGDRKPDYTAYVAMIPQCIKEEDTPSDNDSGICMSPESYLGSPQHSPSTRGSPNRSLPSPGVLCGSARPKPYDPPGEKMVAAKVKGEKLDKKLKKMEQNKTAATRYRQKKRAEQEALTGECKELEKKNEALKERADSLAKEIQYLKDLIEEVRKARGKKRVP

ATF4, sequence (P18848 whole entry): as the sequence (P18848 whole entry, chain 2 of 2) above
C/EBPβ, sequence (P17676 whole entry): as the sequence (P17676 whole entry, chain 1 of 2) above

Binder | binding result [1] | binding result [2] | binding result [3]
palindromic C/EBP EMSA probe (dsDNA) DNA 1: GAGCAAATATTGCGCAATATAAGTC DNA 2: GGACTTATATTGCGCAATATTTGCT | no binding | binds | 
hybrid (ATF4 motif) EMSA probe (dsDNA) DNA 1: GAGCAAATCTGATGCAATATAAGTC DNA 2: GGACTTATATTGCATCAGATTTGCT | no binding |  | binds

Reference: publication PMC4501333, “ATF4 licenses C/EBPβ activity in human mesenchymal stem cells primed for adipogenesis”
